Test results taken from article doi:10.1101/2021.03.14.433363.
Read-outs that look alike come from different tables or passages of the source.

Experiments:
[1] = molecular target: T1, DRH-3 CTD (Caenorhabditis elegans, UniProt Q93413 940-1108); assay: fluorescence polarization
T1 sequence: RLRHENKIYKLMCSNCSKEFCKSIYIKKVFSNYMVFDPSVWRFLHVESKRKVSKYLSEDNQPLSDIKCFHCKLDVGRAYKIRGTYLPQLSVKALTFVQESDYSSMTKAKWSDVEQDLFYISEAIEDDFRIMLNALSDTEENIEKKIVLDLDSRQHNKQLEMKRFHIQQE

[2] = molecular target: T2, RIG-I CTD (human, UniProt O95786 802-925); assay: limited trypsin proteolysis protection
T2 sequence: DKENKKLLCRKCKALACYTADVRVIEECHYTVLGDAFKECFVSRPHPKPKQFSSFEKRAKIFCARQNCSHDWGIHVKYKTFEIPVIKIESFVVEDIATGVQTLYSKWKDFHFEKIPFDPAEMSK

[3] = molecular target: T2, RIG-I CTD; assay: limited trypsin proteolysis protection; remark: listed apart in the source
[4] = molecular target: T1, DRH-3 CTD; assay: crystal structure
[5] = molecular target: T3, DRH-3 full length (Caenorhabditis elegans, UniProt Q93413 1-1119); assay: HDX-MS
T3 sequence: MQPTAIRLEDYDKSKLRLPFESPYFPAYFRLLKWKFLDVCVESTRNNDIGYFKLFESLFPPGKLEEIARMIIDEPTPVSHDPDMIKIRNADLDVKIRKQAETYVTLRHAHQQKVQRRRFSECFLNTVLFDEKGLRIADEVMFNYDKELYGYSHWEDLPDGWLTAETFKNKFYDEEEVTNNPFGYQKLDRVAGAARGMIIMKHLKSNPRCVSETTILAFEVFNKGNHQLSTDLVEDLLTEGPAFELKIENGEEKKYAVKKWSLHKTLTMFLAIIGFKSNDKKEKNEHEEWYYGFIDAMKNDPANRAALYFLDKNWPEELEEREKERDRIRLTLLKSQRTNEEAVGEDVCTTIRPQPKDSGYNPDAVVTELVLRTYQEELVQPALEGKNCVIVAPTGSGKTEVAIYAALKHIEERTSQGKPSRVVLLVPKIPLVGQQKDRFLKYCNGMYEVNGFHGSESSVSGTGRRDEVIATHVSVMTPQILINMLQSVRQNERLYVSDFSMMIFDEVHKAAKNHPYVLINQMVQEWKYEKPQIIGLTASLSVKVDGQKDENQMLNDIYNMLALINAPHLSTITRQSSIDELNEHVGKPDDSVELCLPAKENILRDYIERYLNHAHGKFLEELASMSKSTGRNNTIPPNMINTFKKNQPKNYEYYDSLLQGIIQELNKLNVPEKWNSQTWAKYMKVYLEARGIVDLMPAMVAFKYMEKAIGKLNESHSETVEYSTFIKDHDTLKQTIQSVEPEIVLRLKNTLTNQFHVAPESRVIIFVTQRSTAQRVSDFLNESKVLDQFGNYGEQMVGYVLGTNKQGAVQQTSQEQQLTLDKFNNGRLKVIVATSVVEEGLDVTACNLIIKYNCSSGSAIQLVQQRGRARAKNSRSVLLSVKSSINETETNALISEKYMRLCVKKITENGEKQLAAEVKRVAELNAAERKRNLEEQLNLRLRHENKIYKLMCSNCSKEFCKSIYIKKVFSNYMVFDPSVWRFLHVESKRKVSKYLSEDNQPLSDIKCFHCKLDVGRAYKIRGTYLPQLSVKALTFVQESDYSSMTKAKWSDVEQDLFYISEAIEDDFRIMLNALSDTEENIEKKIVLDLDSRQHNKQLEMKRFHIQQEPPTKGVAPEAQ

Q: Which Kd [1] does the source give for UUUAUAUAUUAGGACCGCUCGGCGGUCCUAAUAUAUAAA (structured_RNA, 5'-OH) [FAM-labelled 5'-OH 18-mer hairpin RNA] here?
A: 325 ± 70.1 nM

B1: 5'-ppp 12-mer dsRNA with 3'-overhang (dsRNA)
RNA 1: GGCGCGCGCGCCC
RNA 2: GGCGCGCGCGCCC
modifications: 5'-triphosphate
Q: Does B1 bind [2]?
A: binds

B2: 5'-ppp 12-mer dsRNA (dsRNA)
RNA 1: GGCGCGCGCGCC
RNA 2: GGCGCGCGCGCC
modifications: 5'-triphosphate
Q: Which results are given for B2?
A: binding result [3]: binds; binding result [4]: binds

Q: Does GGCCGCCC (ssRNA, 5'-triphosphate) [5'-ppp 8-mer ssRNA] bind [4]?
A: binds

Q: Does GGACGUACGUUUCGACGUACGUCC (structured_RNA, 5'-triphosphate) [3p10L (SLR10)] bind [5]?
A: binds
